{"source": "paper PMC6602413", "key": {"[1]": {"molecular_target": "T1, Strep-RapZ (Escherichia coli (K-12?)) (UniProt P0A894)", "T1 sequence": "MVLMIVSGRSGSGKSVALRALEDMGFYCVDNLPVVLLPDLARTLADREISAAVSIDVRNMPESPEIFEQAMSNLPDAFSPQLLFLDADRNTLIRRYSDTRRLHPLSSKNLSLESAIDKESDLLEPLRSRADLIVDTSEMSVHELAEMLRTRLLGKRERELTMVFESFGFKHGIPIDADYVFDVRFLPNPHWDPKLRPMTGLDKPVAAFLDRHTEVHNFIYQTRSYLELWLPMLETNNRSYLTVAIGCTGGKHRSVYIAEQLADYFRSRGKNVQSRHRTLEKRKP", "experiment": "EMSA", "conditions": "10 mM Tris-HCl pH 7.0, 100 mM KCl, 10 mM MgCl2, 1 ug yeast tRNA per 10 ul, 30 min at 30 C (competition 15 + 15 min); native 6% PAGE at 4 C"}, "[2]": {"molecular_target": "T1, Strep-RapZ (Escherichia coli (K-12?))", "experiment": "competition", "conditions": "10 mM Tris-HCl pH 7.0, 100 mM KCl, 10 mM MgCl2, 1 ug yeast tRNA per 10 ul, 30 min at 30 C (competition 15 + 15 min); native 6% PAGE at 4 C"}}}
{"sequence": "GGGAGAGUAGAUGCUCAUUCCAUCUCUUAUGUUCGCCUUAGUGCCUCAUAAACUCCGGAAUGACGCAGAGCCGUUUACGGUGCUUAUCGUCCACUGACAGAUGUCGCUUAUGCCUCAUCAGACACCAUGGACACAACGUUGAGUGAAGCACCCACUUGUUG [GlmZ* (processed GlmZ)]", "values": [{"measurement": "binding", "setting": "[1]", "value": "binds"}, {"measurement": "binding", "setting": "[2]", "value": "binds"}]}
{"sequence": "GGGAGAGUAGAUGCUCAUUCCAUCUCUUAUGUUCGCCUUAGUGCCUCAUAAACUCCGGAAUGACGCAGAGCCGUUUACGGUGCUUAUCGUCCACUGACAGAUGUCGCUUAUGCCUCAUCAGACACCAUGGACACAACGUUGAGUGAAGCACCCACUUGUUGUCAUACAGACCUGUUUUAACGCCUGCUCCGUAAUAAGAGCAGGCGUUUUUUU [GlmZ full-length]", "values": [{"measurement": "binding", "setting": "[1]", "value": "binds"}, {"measurement": "binding", "setting": "[2]", "value": "binds"}]}
